Paper PMC4135013

Columns and labels:
[1] = target: soluble form of recombinant mouse CD16 (sCD16) (mouse); test: ELISA
[2] = target: soluble form of recombinant mouse CD16 (sCD16) (mouse); test: SPR

Substance | Kd [1] | Kd [2]
OVA-IC (soluble immune complex of OVA and rabbit anti-OVA IgG) (from UniProt P01012 1-386) | 90 nM | 
malondialdehyde-modified low-density lipoprotein (MDALDL) |  | 25000 nM
peroxidase/anti-peroxidase immune complex (PAP-IC) |  | 78 nM
